Blank lines part the entries; values can stand above or below the molecule they belong to.
B1: MURUS3/KATAMARI1 (MUR3) fused to hRluc fragment [F1] or [F2] (natural protein, Arabidopsis thaliana, UniProt Q7XJ98 1-619, looked up)
chain: MFPRVSMRRRSAEVSPTEPMEKGNGKNQTNRICLLVALSLFFWALLLYFHFVVLGTSNIDKQLQLQPSYAQSQPSSVSLRVDKFPIEPHAAPSKPPPKEPLVTIDKPILPPAPVANSSSTFKPPRIVESGKKQEFSFIRALKTVDNKSDPCGGKYIYVHNLPSKFNEDMLRDCKKLSLWTNMCKFTTNAGLGPPLENVEGVFSDEGWYATNQFAVDVIFSNRMKQYKCLTNDSSLAAAIFVPFYAGFDIARYLWGYNISRRDAASLELVDWLMKRPEWDIMRGKDHFLVAGRITWDFRRLSEEETDWGNKLLFLPAAKNMSMLVVESSPWNANDFGIPYPTYFHPAKDSEVFEWQDRMRNLERKWLFSFAGAPRPDNPKSIRGQIIDQCRNSNVGKLLECDFGESKCHAPSSIMQMFQSSLFCLQPQGDSYTRRSAFDSMLAGCIPVFFHPGSAYTQYTWHLPKNYTTYSVFIPEDDVRKRNISIEERLLQIPAKQVKIMRENVINLIPRLIYADPRSELETQKDAFDVSVQAVIDKVTRLRKNMIEGRTEYDYFVEENSWKYALLEEGQREAGGHVWDPFFSKPKPGEDGSSDGNGGTTISADAAKNSWKSEQRDKTQ
notes: Made in two forms, one with [F1]-HA and one with [F2]-FLAG; a chain carries one of the two; also called MUR3-[F1]; MUR3-[F2]; source: N. benthamiana leaves, transient expression (A. tumefaciens GV3101, with p19), in crude leaf macerate; not shown: hRluc[F1]; (Renilla luciferase residues 1-110) with HA, C-terminal, kept; hRluc[F2]; (Renilla luciferase residues 111-310) with FLAG, C-terminal, kept
B2: GALACTURONOSYLTRANSFERASE1 (GAUT1) fused to hRluc fragment [F1] or [F2] (natural protein, Arabidopsis thaliana, UniProt Q9LE59 1-673, looked up)
chain: MALKRGLSGVNRIRGSGGGSRSVLVLLIFFCVFAPLCFFVGRGVYIDSSNDYSIVSVKQNLDWRERLAMQSVRSLFSKEILDVIATSTADLGPLSLDSFKKNNLSASWRGTGVDPSFRHSENPATPDVKSNNLNEKRDSISKDSIHQKVETPTKIHRRQLREKRREMRANELVQHNDDTILKLENAAIERSKSVDSAVLGKYSIWRRENENDNSDSNIRLMRDQVIMARVYSGIAKLKNKNDLLQELQARLKDSQRVLGEATSDADLPRSAHEKLRAMGQVLAKAKMQLYDCKLVTGKLRAMLQTADEQVRSLKKQSTFLAQLAAKTIPNPIHCLSMRLTIDYYLLSPEKRKFPRSENLENPNLYHYALFSDNVLAASVVVNSTIMNAKDPSKHVFHLVTDKLNFGAMNMWFLLNPPGKATIHVENVDEFKWLNSSYCPVLRQLESAAMREYYFKADHPTSGSSNLKYRNPKYLSMLNHLRFYLPEVYPKLNKILFLDDDIIVQKDLTPLWEVNLNGKVNGAVETCGESFHRFDKYLNFSNPHIARNFNPNACGWAYGMNMFDLKEWKKRDITGIYHKWQNMNENRTLWKLGTLPPGLITFYGLTHPLNKAWHVLGLGYNPSIDKKDIENAAVVHYNGNMKPWLELAMSKYRPYWTKYIKFDHPYLRRCNLHE
notes: Made in two forms, one with [F1]-HA and one with [F2]-FLAG; a chain carries one of the two; also called GAUT1-[F1]; GAUT1-[F2]; source: N. benthamiana leaves, transient expression (A. tumefaciens GV3101, with p19), in crude leaf macerate; not shown: hRluc[F1]; (Renilla luciferase residues 1-110) with HA, C-terminal, kept; hRluc[F2]; (Renilla luciferase residues 111-310) with FLAG, C-terminal, kept
B3: ARABINAN DEFICIENT1 (ARAD1) fused to hRluc fragment [F1] or [F2] (natural protein, Arabidopsis thaliana, UniProt Q6DBG8 1-447, looked up)
chain: MARKSSLLKRAAIAVVSVIAIYVILNASVSRSLPSSSDLPRQLIREDDDDEGRAPIQPRVRVYMYNLPKRFTYGLIEQHSIARGGIKKPVGDVTTLKYPGHQHMHEWYLFSDLNQPEVDRSGSPIVRVSDPADADLFYVPVFSSLSLIVNAGRPVEAGSGYSDEKMQEGLVEWLEGQEWWRRNAGRDHVIPAGDPNALYRILDRVKNAVLLVSDFGRLRPDQGSFVKDVVIPYSHRVNLFNGEIGVEDRNTLLFFMGNRYRKDGGKVRDLLFQVLEKEDDVTIKHGTQSRENRRAATKGMHTSKFCLNPAGDTPSACRLFDSIVSLCVPLIVSDSIELPFEDVIDYRKFSIFVEANAALQPGFLVQMLRKIKTKKILEYQREMKSVRRYFDYDNPNGAVKEIWRQVSHKLPLIKLMSNRDRRLVLRNLTEPNCSCLCTNQTGLITSI
notes: Made in two forms, one with [F1]-HA and one with [F2]-FLAG; a chain carries one of the two; also called ARAD1-[F1]; ARAD1-[F2]; source: N. benthamiana leaves, transient expression (A. tumefaciens GV3101, with p19), in crude leaf macerate; not shown: hRluc[F1]; (Renilla luciferase residues 1-110) with HA, C-terminal, kept; hRluc[F2]; (Renilla luciferase residues 111-310) with FLAG, C-terminal, kept
B4: GALACTURONOSYLTRANSFERASE7 (GAUT7) fused to hRluc fragment [F1] or [F2] (natural protein, Arabidopsis thaliana, UniProt Q9ZVI7 1-619, looked up)
chain: MKGGGGGGGGGGGGKRRWKVLVIGVLVLVILSMLVPLAFLLGLHNGFHSPGFVTVQPASSFESFTRINATKHTQRDVSERVDEVLQKINPVLPKKSDINVGSRDVNATSGTDSKKRGLPVSPTVVANPSPANKTKSEASYTGVQRKIVSGDETWRTCEVKYGSYCLWREENKEPMKDAKVKQMKDQLFVARAYYPSIAKMPSQSKLTRDMKQNIQEFERILSESSQDADLPPQVDKKLQKMEAVIAKAKSFPVDCNNVDKKLRQILDLTEDEASFHMKQSVFLYQLAVQTMPKSLHCLSMRLTVEHFKSDSLEDPISEKFSDPSLLHFVIISDNILASSVVINSTVVHARDSKNFVFHVLTDEQNYFAMKQWFIRNPCKQSTVQVLNIEKLELDDSDMKLSLSAEFRVSFPSGDLLASQQNRTHYLSLFSQSHYLLPKLFDKLEKVVILDDDVVVQRDLSPLWDLDMEGKVNGAVKSCTVRLGQLRSLKRGNFDTNACLWMSGLNVVDLARWRALGVSETYQKYYKEMSSGDESSEAIALQASLLTFQDQVYALDDKWALSGLGYDYYINAQAIKNAAILHYNGNMKPWLELGIPNYKNYWRRHLSREDRFLSDCNVNP
notes: Made in two forms, one with [F1]-HA and one with [F2]-FLAG; a chain carries one of the two; also called GAUT7-[F1]; GAUT7-[F2]; source: N. benthamiana leaves, transient expression (A. tumefaciens GV3101, with p19), in crude leaf macerate; not shown: hRluc[F1]; (Renilla luciferase residues 1-110) with HA, C-terminal, kept; hRluc[F2]; (Renilla luciferase residues 111-310) with FLAG, C-terminal, kept

Columns and labels:
Assay in all cases: split reporter (BiFC, NanoBiT); Rluc-PCA: proteins with C-terminal hRluc[F1]-HA and hRluc[F2]-FLAG co-expressed with p19 in N. benthamiana leaves for 72 h (Agrobacterium OD600 0.2 each, p19 0.05); pooled leaf discs macerated in 0.5 M NaCl, 0.1 M potassium phosphate pH 7.4, 1 mM EDTA, 0.02% BSA, protease inhibitors; 10 uM coelenterazine-h, luminescence 30 s; compared with p19 alone
[1] = target: FUCO…1 (FUT1) fused to hRluc fragment [F1] or [F2] (Arabidopsis thaliana) (UniProt Q9SWH5)
[2] = target: the molecule itself
[3] = target: B4; settings: partners not purified
[4] = target: B2; settings: partners not purified

FUCO…1 (FUT1) fused to hRluc fragment [F1] or [F2] (Arabidopsis thaliana), sequence (Q9SWH5 whole entry, the tested form may be a part): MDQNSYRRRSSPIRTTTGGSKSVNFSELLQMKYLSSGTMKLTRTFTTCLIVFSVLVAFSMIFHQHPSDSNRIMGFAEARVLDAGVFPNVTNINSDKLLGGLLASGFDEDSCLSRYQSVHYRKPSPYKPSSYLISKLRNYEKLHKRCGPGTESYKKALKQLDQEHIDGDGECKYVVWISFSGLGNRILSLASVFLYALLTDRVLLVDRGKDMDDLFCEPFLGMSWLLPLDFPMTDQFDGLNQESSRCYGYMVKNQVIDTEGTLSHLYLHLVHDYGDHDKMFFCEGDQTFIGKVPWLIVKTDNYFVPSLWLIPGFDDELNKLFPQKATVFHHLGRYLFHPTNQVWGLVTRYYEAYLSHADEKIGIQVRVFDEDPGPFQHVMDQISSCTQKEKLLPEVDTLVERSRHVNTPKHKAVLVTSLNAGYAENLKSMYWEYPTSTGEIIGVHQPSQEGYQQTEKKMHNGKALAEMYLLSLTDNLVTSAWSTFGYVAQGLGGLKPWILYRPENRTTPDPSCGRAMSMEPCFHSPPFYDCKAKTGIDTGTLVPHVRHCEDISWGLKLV

Log10(RLU) [1]: 3.76 Log10(RLU)
Molecule: XXT5 fused to hRluc fragment [F1] or [F2] (from UniProt Q9CA75 1-457) (natural protein)

Molecule: B1
Log10(RLU) [2]: 4.75 Log10(RLU)

Molecule: B2
Log10(RLU) [3]: 4.71 Log10(RLU)

Molecule: B3
Log10(RLU) [2]: 4.75 Log10(RLU)

Molecule: B4
Log10(RLU) [4]: 4.71 Log10(RLU)

— publication PMC4265154, “A reversible Renilla luciferase protein complementation assay for rapid identification of protein–protein interactions reveals the existence of an interaction network involved in xyloglucan biosynthesis in the plant Golgi apparatus” (Journal of Experimental Botany, 2014)
